# Data from the Human Domainome abundance scans (Beltran et al. 2025).
# ± gives the uncertainty stated by the source.
# Test: abundance fitness (aPCA) (normalised: wild type 0, dead -1); higher = more abundant; growth selection in yeast, the domain comes from the species named
# Settings: Homo sapiens
row,Substance,abundance fitness
1,"SAFB-like transcription modulator S32W, Q9NWH9",-0.108 ± 0.049
2,"SAFB-like transcription modulator S32Y, Q9NWH9",-0.173 ± 0.09
3,"SAFB-like transcription modulator S50A, Q9NWH9",0.015 ± 0.037
4,"SAFB-like transcription modulator S50C, Q9NWH9",-0.342 ± 0.082
5,"SAFB-like transcription modulator S50D, Q9NWH9",-0.109 ± 0.065
6,"SAFB-like transcription modulator S50E, Q9NWH9",0.087 ± 0.075
7,"SAFB-like transcription modulator S50F, Q9NWH9",-0.253 ± 0.052
8,"SAFB-like transcription modulator S50G, Q9NWH9",0.028 ± 0.039
9,"SAFB-like transcription modulator S50H, Q9NWH9",-0.353 ± 0.47
10,"SAFB-like transcription modulator S50I, Q9NWH9",-0.514 ± 0.29
11,"SAFB-like transcription modulator S50K, Q9NWH9",-0.111 ± 0.083
12,"SAFB-like transcription modulator S50L, Q9NWH9",-0.055 ± 0.075
13,"SAFB-like transcription modulator S50P, Q9NWH9",-0.521 ± 0.14
14,"SAFB-like transcription modulator S50Q, Q9NWH9",-0.486 ± 0.22
15,"SAFB-like transcription modulator S50R, Q9NWH9",-0.037 ± 0.062
16,"SAFB-like transcription modulator S50V, Q9NWH9",-0.38 ± 0.072
17,"SAFB-like transcription modulator T23A, Q9NWH9",-0.063 ± 0.035
18,"SAFB-like transcription modulator T23C, Q9NWH9",-0.083 ± 0.042
19,"SAFB-like transcription modulator T23D, Q9NWH9",-0.093 ± 0.041
20,"SAFB-like transcription modulator T23E, Q9NWH9",-0.001 ± 0.034
21,"SAFB-like transcription modulator T23F, Q9NWH9",-0.127 ± 0.035
22,"SAFB-like transcription modulator T23G, Q9NWH9",-0.072 ± 0.034
23,"SAFB-like transcription modulator T23H, Q9NWH9",-0.281 ± 0.034
24,"SAFB-like transcription modulator T23I, Q9NWH9",-0.019 ± 0.033
25,"SAFB-like transcription modulator T23L, Q9NWH9",-0.184 ± 0.031
26,"SAFB-like transcription modulator T23M, Q9NWH9",-0.06 ± 0.038

row,Substance,abundance fitness
1,"SAFB-like transcription modulator T23N, Q9NWH9",-0.066 ± 0.035
2,"SAFB-like transcription modulator T23P, Q9NWH9",-0.339 ± 0.031
3,"SAFB-like transcription modulator T23Q, Q9NWH9",-0.034 ± 0.046
4,"SAFB-like transcription modulator T23R, Q9NWH9",-0.178 ± 0.033
5,"SAFB-like transcription modulator T23S, Q9NWH9",-0.021 ± 0.032
6,"SAFB-like transcription modulator T23V, Q9NWH9",-0.049 ± 0.031
7,"SAFB-like transcription modulator T23W, Q9NWH9",-0.175 ± 0.047
8,"SAFB-like transcription modulator T23Y, Q9NWH9",-0.083 ± 0.033
9,"SAFB-like transcription modulator T42A, Q9NWH9",-0.045 ± 0.092
10,"SAFB-like transcription modulator T42C, Q9NWH9",0.078 ± 0.097
11,"SAFB-like transcription modulator T42D, Q9NWH9",0.061 ± 0.092
12,"SAFB-like transcription modulator T42E, Q9NWH9",-0.107 ± 0.12
13,"SAFB-like transcription modulator T42G, Q9NWH9",-0.247 ± 0.085
14,"SAFB-like transcription modulator T42I, Q9NWH9",-0.682 ± 0.14
15,"SAFB-like transcription modulator T42K, Q9NWH9",0.035 ± 0.11
16,"SAFB-like transcription modulator T42L, Q9NWH9",-0.345 ± 0.069
17,"SAFB-like transcription modulator T42M, Q9NWH9",-0.104 ± 0.09
18,"SAFB-like transcription modulator T42N, Q9NWH9",-0.442 ± 0.16
19,"SAFB-like transcription modulator T42P, Q9NWH9",-0.729 ± 0.051
20,"SAFB-like transcription modulator T42Q, Q9NWH9",0.127 ± 0.1
21,"SAFB-like transcription modulator T42R, Q9NWH9",0.057 ± 0.084
22,"SAFB-like transcription modulator T42S, Q9NWH9",0.071 ± 0.095
23,"SAFB-like transcription modulator T42V, Q9NWH9",-0.488 ± 0.099
24,"SAFB-like transcription modulator T42W, Q9NWH9",-0.315 ± 0.095
25,"SAFB-like transcription modulator T42Y, Q9NWH9",0.194 ± 0.11
26,"SAFB-like transcription modulator T46A, Q9NWH9",-0.062 ± 0.068

row,Substance,abundance fitness
1,"SAFB-like transcription modulator T46C, Q9NWH9",0.066 ± 0.074
2,"SAFB-like transcription modulator T46D, Q9NWH9",-0.235 ± 0.088
3,"SAFB-like transcription modulator T46E, Q9NWH9",0.004 ± 0.068
4,"SAFB-like transcription modulator T46F, Q9NWH9",-0.358 ± 0.088
5,"SAFB-like transcription modulator T46G, Q9NWH9",-0.094 ± 0.06
6,"SAFB-like transcription modulator T46H, Q9NWH9",0.011 ± 0.071
7,"SAFB-like transcription modulator T46I, Q9NWH9",-0.107 ± 0.073
8,"SAFB-like transcription modulator T46K, Q9NWH9",0.074 ± 0.09
9,"SAFB-like transcription modulator T46L, Q9NWH9",-0.082 ± 0.052
10,"SAFB-like transcription modulator T46M, Q9NWH9",0.111 ± 0.073
11,"SAFB-like transcription modulator T46N, Q9NWH9",0.103 ± 0.093
12,"SAFB-like transcription modulator T46P, Q9NWH9",0.037 ± 0.071
13,"SAFB-like transcription modulator T46Q, Q9NWH9",-0.137 ± 0.074
14,"SAFB-like transcription modulator T46R, Q9NWH9",-0.163 ± 0.064
15,"SAFB-like transcription modulator T46S, Q9NWH9",0.05 ± 0.059
16,"SAFB-like transcription modulator T46W, Q9NWH9",-0.129 ± 0.038
17,"SAFB-like transcription modulator T46Y, Q9NWH9",-0.097 ± 0.088
18,"SAFB-like transcription modulator V27A, Q9NWH9",-0.395 ± 0.1
19,"SAFB-like transcription modulator V27C, Q9NWH9",-0.067 ± 0.094
20,"SAFB-like transcription modulator V27D, Q9NWH9",-0.127 ± 0.12
21,"SAFB-like transcription modulator V27E, Q9NWH9",-0.153 ± 0.11
22,"SAFB-like transcription modulator V27F, Q9NWH9",-0.585 ± 0.15
23,"SAFB-like transcription modulator V27G, Q9NWH9",-0.405 ± 0.088
24,"SAFB-like transcription modulator V27I, Q9NWH9",-0.011 ± 0.054
25,"SAFB-like transcription modulator V27K, Q9NWH9",-0.533 ± 0.27
26,"SAFB-like transcription modulator V27L, Q9NWH9",-0.21 ± 0.082

row,Substance,abundance fitness
1,"SAFB-like transcription modulator V27M, Q9NWH9",0.158 ± 0.099
2,"SAFB-like transcription modulator V27N, Q9NWH9",-0.453 ± 0.16
3,"SAFB-like transcription modulator V27Q, Q9NWH9",-0.426 ± 0.15
4,"SAFB-like transcription modulator V27R, Q9NWH9",-0.241 ± 0.07
5,"SAFB-like transcription modulator V27S, Q9NWH9",-0.417 ± 0.097
6,"SAFB-like transcription modulator V27T, Q9NWH9",0.086 ± 0.092
7,"SAFB-like transcription modulator V27W, Q9NWH9",-0.396 ± 0.09
8,"SAFB-like transcription modulator V27Y, Q9NWH9",-0.29 ± 0.24
9,"SAFB-like transcription modulator V44A, Q9NWH9",0.064 ± 0.039
10,"SAFB-like transcription modulator V44C, Q9NWH9",0.036 ± 0.076
11,"SAFB-like transcription modulator V44D, Q9NWH9",0.055 ± 0.072
12,"SAFB-like transcription modulator V44E, Q9NWH9",-0.124 ± 0.075
13,"SAFB-like transcription modulator V44F, Q9NWH9",0.002 ± 0.075
14,"SAFB-like transcription modulator V44H, Q9NWH9",0.126 ± 0.089
15,"SAFB-like transcription modulator V44I, Q9NWH9",-0.057 ± 0.054
16,"SAFB-like transcription modulator V44K, Q9NWH9",-0.233 ± 0.088
17,"SAFB-like transcription modulator V44L, Q9NWH9",-0.122 ± 0.038
18,"SAFB-like transcription modulator V44M, Q9NWH9",-0.092 ± 0.058
19,"SAFB-like transcription modulator V44N, Q9NWH9",0.048 ± 0.058
20,"SAFB-like transcription modulator V44P, Q9NWH9",0.014 ± 0.049
21,"SAFB-like transcription modulator V44Q, Q9NWH9",-0.134 ± 0.078
22,"SAFB-like transcription modulator V44R, Q9NWH9",-0.054 ± 0.034
23,"SAFB-like transcription modulator V44S, Q9NWH9",0.036 ± 0.051
24,"SAFB-like transcription modulator V44T, Q9NWH9",-0.008 ± 0.06
25,"SAFB-like transcription modulator V44W, Q9NWH9",-0.358 ± 0.055
